Literature values in PMC2924770.
Read-outs that look alike come from different tables or passages of the source.

Columns and labels:
[1] = target: hemoglobin (Homo sapiens) (UniProt P69905)
[2] = target: hemoglobin (Homo sapiens) (UniProt P69905); remark: listed apart in the source

Row | Substance | Kd [1] | Kd [2]
1 | RgpA (from UniProt P28784) | 3.72 nM | 
2 | Kgp (from UniProt B2RLK2) |  | 3.92 nM
